Source: paper PMC2173853 (The Journal of Cell Biology, 2002)
Read-outs that look alike come from different tables or passages of the source.

Tests used:
Assay in all cases: pull-down
[1] = target: T1, GST–Sec22p (yeast, UniProt P22214)
T1 sequence: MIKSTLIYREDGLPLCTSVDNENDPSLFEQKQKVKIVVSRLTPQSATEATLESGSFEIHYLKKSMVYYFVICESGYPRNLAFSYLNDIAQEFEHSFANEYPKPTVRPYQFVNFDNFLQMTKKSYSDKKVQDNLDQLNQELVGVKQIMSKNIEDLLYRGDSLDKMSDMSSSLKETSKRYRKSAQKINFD

[2] = target: T1, GST–Sec22p; remark: listed apart in the source
[3] = target: T1, GST–Sec22p; remark: listed apart in the source
[4] = target: T1, GST–Sec22p; remark: listed apart in the source
[5] = target: preassembled SNARE complex of GST–Sec22p, Sed5p, Bos1p and Bet1p with Sly1p (yeast | S. cerevisiae, UniProt P22214;Q01590;P25385;P22804;P22213)
[6] = target: T2, preassembled SNARE complex of GST–Sec22p, Sed5p, Bos1p and Bet1p (yeast, UniProt P22214;Q01590;P25385;P22804)
T2 sequence 1: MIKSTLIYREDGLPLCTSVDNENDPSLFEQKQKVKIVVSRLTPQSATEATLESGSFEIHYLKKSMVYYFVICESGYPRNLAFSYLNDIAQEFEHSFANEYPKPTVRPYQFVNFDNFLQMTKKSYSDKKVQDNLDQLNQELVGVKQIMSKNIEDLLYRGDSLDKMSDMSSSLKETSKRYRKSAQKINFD
T2 sequence 2: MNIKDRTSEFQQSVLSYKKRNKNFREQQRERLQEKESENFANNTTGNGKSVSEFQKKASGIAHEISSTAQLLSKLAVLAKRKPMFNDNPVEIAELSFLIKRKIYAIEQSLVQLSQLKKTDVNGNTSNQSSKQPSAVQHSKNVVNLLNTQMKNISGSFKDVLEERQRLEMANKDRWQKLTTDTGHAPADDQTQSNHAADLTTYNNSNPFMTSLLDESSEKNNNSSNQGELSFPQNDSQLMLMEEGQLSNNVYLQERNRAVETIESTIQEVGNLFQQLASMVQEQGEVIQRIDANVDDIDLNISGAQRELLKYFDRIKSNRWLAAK
T2 sequence 3: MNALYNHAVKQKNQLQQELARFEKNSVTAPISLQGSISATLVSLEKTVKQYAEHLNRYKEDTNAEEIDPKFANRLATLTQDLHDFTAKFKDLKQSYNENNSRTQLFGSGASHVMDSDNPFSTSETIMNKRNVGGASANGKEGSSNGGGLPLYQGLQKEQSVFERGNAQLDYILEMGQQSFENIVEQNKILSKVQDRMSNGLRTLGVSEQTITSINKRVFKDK
T2 sequence 4: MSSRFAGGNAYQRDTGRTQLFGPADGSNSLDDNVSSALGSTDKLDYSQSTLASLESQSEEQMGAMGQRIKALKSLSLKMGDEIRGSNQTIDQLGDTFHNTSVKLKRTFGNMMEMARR

[7] = target: T3, heterodimeric GST–Sed5p–His10-Sly1p complex bound to beads (S. cerevisiae, UniProt Q01590;P22213)
T3 sequence 1: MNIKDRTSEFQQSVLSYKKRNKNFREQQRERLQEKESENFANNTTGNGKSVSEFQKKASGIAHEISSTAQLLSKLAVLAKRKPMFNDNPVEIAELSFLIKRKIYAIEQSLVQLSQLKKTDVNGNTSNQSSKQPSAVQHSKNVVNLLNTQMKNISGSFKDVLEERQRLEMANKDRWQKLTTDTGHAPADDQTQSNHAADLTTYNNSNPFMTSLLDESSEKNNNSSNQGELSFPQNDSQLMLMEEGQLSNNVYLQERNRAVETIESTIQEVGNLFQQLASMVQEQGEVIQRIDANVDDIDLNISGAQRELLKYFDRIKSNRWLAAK
T3 sequence 2: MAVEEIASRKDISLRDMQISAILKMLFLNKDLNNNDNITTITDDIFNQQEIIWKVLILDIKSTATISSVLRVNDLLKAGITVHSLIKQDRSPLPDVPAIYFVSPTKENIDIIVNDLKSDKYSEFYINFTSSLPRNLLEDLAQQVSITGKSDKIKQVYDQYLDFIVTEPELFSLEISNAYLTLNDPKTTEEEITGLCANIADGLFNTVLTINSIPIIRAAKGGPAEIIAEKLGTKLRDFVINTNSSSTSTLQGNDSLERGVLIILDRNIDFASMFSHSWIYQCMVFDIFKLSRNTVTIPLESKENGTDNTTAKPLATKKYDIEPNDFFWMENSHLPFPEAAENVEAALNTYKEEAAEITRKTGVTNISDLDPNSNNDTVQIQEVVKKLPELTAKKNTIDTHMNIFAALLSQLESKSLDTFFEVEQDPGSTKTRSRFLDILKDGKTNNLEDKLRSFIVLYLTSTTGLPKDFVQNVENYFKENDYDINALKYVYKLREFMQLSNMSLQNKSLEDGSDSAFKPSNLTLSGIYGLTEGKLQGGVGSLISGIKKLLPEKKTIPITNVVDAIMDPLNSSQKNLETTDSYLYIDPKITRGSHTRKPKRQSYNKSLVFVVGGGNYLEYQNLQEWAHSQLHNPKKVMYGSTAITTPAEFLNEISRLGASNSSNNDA

[8] = target: T4, GST–Sed5p (entire cytosolic region) (S. cerevisiae, UniProt Q01590 1-324)
T4 sequence: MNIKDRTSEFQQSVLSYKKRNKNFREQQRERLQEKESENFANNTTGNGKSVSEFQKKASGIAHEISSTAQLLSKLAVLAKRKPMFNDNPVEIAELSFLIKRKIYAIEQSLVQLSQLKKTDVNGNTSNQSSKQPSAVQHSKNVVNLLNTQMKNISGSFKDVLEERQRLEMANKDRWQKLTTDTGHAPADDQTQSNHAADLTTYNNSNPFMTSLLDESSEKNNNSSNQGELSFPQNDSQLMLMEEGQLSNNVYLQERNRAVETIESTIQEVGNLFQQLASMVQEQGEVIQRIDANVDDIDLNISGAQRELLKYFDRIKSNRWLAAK

[9] = target: T5, Sly1p cleaved from purified GST–Sly1p (untagged soluble Sly1p) (S. cerevisiae, UniProt P22213 1-666)
T5 sequence: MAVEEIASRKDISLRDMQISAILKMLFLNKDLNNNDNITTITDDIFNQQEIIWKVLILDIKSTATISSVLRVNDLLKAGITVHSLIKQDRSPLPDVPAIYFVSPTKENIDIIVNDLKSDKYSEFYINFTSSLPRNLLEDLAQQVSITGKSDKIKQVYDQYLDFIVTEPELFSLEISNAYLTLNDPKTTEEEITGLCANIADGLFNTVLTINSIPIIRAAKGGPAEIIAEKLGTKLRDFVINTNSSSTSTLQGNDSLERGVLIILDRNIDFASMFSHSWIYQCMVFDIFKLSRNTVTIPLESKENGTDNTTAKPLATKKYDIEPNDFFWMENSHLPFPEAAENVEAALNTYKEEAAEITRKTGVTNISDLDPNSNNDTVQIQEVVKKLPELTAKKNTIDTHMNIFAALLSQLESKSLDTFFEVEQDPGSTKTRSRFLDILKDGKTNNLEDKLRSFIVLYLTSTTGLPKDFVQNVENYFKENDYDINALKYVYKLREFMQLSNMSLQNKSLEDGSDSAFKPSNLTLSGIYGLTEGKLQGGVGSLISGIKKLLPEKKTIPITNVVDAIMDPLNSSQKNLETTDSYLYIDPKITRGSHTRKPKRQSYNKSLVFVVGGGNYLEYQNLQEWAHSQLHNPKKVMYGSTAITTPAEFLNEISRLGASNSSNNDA

B1: His6-Sed5p (NH2-terminally His6-tagged Sed5p lacking the COOH-terminal membrane anchor) (domain or fragment)
chain: MNIKDRTSEFQQSVLSYKKRNKNFREQQRERLQEKESENFANNTTGNGKSVSEFQKKASGIAHEISSTAQLLSKLAVLAKRKPMFNDNPVEIAELSFLIKRKIYAIEQSLVQLSQLKKTDVNGNTSNQSSKQPSAVQHSKNVVNLLNTQMKNISGSFKDVLEERQRLEMANKDRWQKLTTDTGHAPADDQTQSNHAADLTTYNNSNPFMTSLLDESSEKNNNSSNQGELSFPQNDSQLMLMEEGQLSNNVYLQERNRAVETIESTIQEVGNLFQQLASMVQEQGEVIQRIDANVDDIDLNISGAQRELLKYFDRIKSNRWLAAK
stoichiometry N [1]: 1.1 Sed5p per Sec22p
stoichiometry N [2]: 0.3 Sed5p per Sec22p
stoichiometry of Sly1p–Sed5p–Bos1p–Sec22p–Bet1p in the isolated complex [3]: 1.2 molar ratio (GST–Sec22p = 1.4)
stoichiometry N [4]: 0.5 Sed5p per Sec22p

B2: His6-Sec17p (full length) (natural protein)
chain: MSDPVELLKRAEKKGVPSSGFMKLFSGSDSYKFEEAADLCVQAATIYRLRKELNLAGDSFLKAADYQKKAGNEDEAGNTYVEAYKCFKSGGNSVNAVDSLENAIQIFTHRGQFRRGANFKFELGEILENDLHDYAKAIDCYELAGEWYAQDQSVALSNKCFIKCADLKALDGQYIEASDIYSKLIKSSMGNRLSQWSLKDYFLKKGLCQLAATDAVAAARTLQEGQSEDPNFADSRESNFLKSLIDAVNEGDSEQLSEHCKEFDNFMRLDKWKITILNKIKESIQQQEDDLL
stoichiometry N [5]: 2.7 Sec17p per Sed5p
stoichiometry N [6]: 3.3 Sec17p per Sed5p

B3: His6-Bos1p lacking the transmembrane (TM) (domain or fragment)
chain: MNALYNHAVKQKNQLQQELARFEKNSVTAPISLQGSISATLVSLEKTVKQYAEHLNRYKEDTNAEEIDPKFANRLATLTQDLHDFTAKFKDLKQSYNENNSRTQLFGSGASHVMDSDNPFSTSETIMNKRNVGGASANGKEGSSNGGGLPLYQGLQKEQSVFERGNAQLDYILEMGQQSFENIVEQNKILSKVQDRMSNGLRTLGVSEQTITSINKRVFKDK
stoichiometry N [7]: 1.4 per Sed5p
stoichiometry N [8]: 1.3 per Sed5p
stoichiometry of Sly1p–Sed5p–Bos1p–Sec22p–Bet1p in the isolated complex [3]: 0.8 molar ratio (GST–Sec22p = 1.4)

B4: GST–Sed5N (NH2-terminal domain) (domain or fragment)
chain: MNIKDRTSEFQQSVLSYKKRNKNFREQQRERLQEKESENFANNTTGNGKSVSEFQKKASGIAHEISSTAQLLSKLAVLAKRKPMFNDNPVEIAELSFLIKRKIYAIEQSLVQLSQLKKTDVNGNTSNQSSKQPSAVQHSKNVVNLLNTQMKNISGSFKDVLEERQRLEMANKDRWQKLTTDTGHAPADDQTQSNHAADLTTYNNSNPFMTSLLDESSEKNNNSSNQGELSFPQNDSQLMLMEEGQLSNNV
binding result [9]: binds
